Test results: patent US5955575A, “Antagonists of G-protein-coupled receptor” (Hopital Sainte-Justine, priority 1997, dated 1999)
pIC50: −log10 of the molar value. No end group written: not given here.

Key:
Assay type in all cases: cell-based
EP1 = target: T1, EP1 (Homo sapiens, UniProt P34995); test: Phosphoinositide hydrolysis in A549 cells stably expressing the peptides, stimulated with PGE2 (specificity); details: peptide stably expressed intracellularly in A549 cells; 1 μM PGE2 for 30 min; FIG. 1B
T1 construct: a related prostaglandin receptor expressed in these cells; endogenous in cells; host or cells: A549 lung carcinoma cells (ATCC CCL185)
T1 sequence (P34995 1-402): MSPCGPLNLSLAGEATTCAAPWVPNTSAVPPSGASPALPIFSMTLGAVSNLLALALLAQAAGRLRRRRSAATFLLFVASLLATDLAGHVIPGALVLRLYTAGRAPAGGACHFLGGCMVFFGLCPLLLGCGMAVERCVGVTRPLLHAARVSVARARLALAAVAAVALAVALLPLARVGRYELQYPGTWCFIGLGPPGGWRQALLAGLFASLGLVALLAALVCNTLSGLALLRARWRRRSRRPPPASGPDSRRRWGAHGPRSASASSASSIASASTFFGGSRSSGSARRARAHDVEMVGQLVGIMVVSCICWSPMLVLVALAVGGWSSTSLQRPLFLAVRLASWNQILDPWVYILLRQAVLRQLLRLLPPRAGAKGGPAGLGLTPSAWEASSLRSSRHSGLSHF
Method: (§1) A549 lung carcinoma cells (ATCC Accession No.: CCL185, American Type Culture Collection, Rockville, Md. 20852) were cultured in Dulbecco's modified Eagles medium (DMEM) with 10% fetal bovine serum (FBS) and antibiotics, penicillin (10 U/ml) and streptomycin (10 μg/ml) in a humidified atmosphere containing 5% CO2 at 37° C. The cells were trypsinized and plated in 6-well tissue culture dishes at 2×10^5 cells/well, a day before commencing the experiments.
(§2) The expression plasmids carrying the third (PCP-1) and the fourth (PCP-2) intracellular domains were introduced into A549 cells using Transfectamine lipid (GIBCO Life Technologies, Burlington, ON). Three (3) micrograms of DNA and 16 μg of lipid were mixed in 200 μl of water and incubated at room temperature for 45 min. Then, the lipid-DNA complexes were diluted with 0.8 ml of Opti-MEM™ (GIBCO Life Technologies, Burlington, ON). The cells were washed twice with Hank's Balanced Salt Solution and incubated with lipid-DNA complexes for 6 hours. An equal volume of DMEM with 20% FBS was added and the cells were kept in the incubator overnight. On the next day, the medium was replaced with DMEM containing 10% FBS and antibiotics and incubated for another 24 hours. […]

FP receptor [1] = target: T2, FP receptor (Homo sapiens, UniProt P43088); test: Phosphoinositide hydrolysis in A549 cells stably expressing the peptides, stimulated with PGF2α; details: peptide stably expressed intracellularly in A549 cells; 1 μM PGF2α for 30 min; n=3; FIG. 1A
T2 construct: endogenous in cells; host or cells: A549 lung carcinoma cells (ATCC CCL185)
Method: as §1, §2

FP receptor [2] = target: T2, FP receptor; test: Phosphoinositide hydrolysis in permeabilized A549 cells loaded with synthetic peptides, stimulated with PGF2α; details: dose-response in permeabilized A549 cells stimulated with PGF2α; FIG. 2B; read-out: half maximal inhibitory concentration

T2 sequence (P43088 whole entry): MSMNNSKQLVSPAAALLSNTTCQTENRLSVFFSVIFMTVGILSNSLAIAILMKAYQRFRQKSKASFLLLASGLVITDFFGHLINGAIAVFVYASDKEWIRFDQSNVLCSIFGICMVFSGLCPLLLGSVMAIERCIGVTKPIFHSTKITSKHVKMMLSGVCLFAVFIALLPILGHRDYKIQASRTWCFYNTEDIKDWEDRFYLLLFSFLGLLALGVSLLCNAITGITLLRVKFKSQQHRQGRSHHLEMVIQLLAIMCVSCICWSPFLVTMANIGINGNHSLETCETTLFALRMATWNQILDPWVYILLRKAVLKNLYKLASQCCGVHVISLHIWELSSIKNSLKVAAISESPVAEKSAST

Row | Substance | inositol phosphate generation by EP1 receptor (EP1) | ligand-stimulated phosphoinositide hydrolysis (fold stimulation over unstimulated controls) (FP receptor [1]) | pIC50 (FP receptor [2])
1 | RKAVLKNLYKLASQCCGVHVISLHIWELSSIKNSLKVAAISESPVAEKSAST (RKAVLKNLYKLASQCCGVHVISLHIWELSSIKNSLKVAAISESPVAEKSAST) [PCP-2] | did not affect | inhibited | 
2 | RVKFKSQQHR QGRSHHLEM (RVKFKSQQHRQGRSHHLEM) [PCP-1] | did not affect | inhibited | 
3 | KDTILQLNLKEYNLV-NH2 [PCP-4, KDTILQLNLK EYNLV-NH2] |  |  | 4.30
